Non-standard residues stand in square brackets, D forms with d. *: point of attachment. FITC = O=C1OC2(c3ccc(O)cc3Oc3cc(O)ccc32)c2ccc(NC(=S)*)cc21; Nle = CCCC[C@H](N)C(=O)O; AEEA = NCCOCCOCC(=O)O
Molecular target: T1, KIX domain from the human CREB binding protein (KIX wt) (human, UniProt Q92793 587-672)
T1 construct: domain: KIX domain; Expressed as GST fusion in E. coli, GST removed by PreScission cleavage
Assay: fluorescence polarization, FITC-labeled MLL peptide, protein titrated 70 µM-0 µM
Procedure: Binding of K1-t1 and K1-t2 to mixed lineage leukemia (MLL) transcription factor was evaluated using the FITC-labeled peptide FITC-020c-[…](Nle)[…]-NH2 (SEQ ID NO: 6). This sequence is derived from MLL and will be refereed as MLL peptide throughout. A 40 nM solution of MLL peptide in 25 mM HEPES (pH 7.4), 100 mM NaCl and 2 mM TCEP was prepared. A 3-fold dilution of KIX, K1-t1 and K1-t2 was performed in 14 steps on a 384-well-plate (black, round bottom, Corning) using the same buffer. 5 μL of 40 nM MLL peptide solution was then added, and the final 20 μL solution was incubated at r.t. A final protein range of 70 μM-0 μM was used. After 1 h-incubation, fluorescence polarization was measured using a Spark 20M plate reader (Tecan) with λ(ex)=485 nm and λ(em)=525 nm. Kd were determined by applying nonlinear regression analysis of dose-response curves in GraphPad Prism software.

T1 sequence (Q92793 587-672 limits assumed): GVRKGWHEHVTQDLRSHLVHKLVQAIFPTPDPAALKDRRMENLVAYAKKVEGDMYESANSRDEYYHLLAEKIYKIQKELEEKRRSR

Kd: 600 nM
B1: MLL peptide FITC-O2Oc-GNILPSDI(Nle)DFVLKNTP-NH2 (peptide)
peptide: {FITC-AEEA}-GNILPSDI[Nle]DFVLKNTP-NH2
notes: Synthetic peptide made by Fmoc SPPS on Rink amide resin; Used at 10 nM final (5 uL of 40 nM in 20 uL) in the FP assay; also called mixed lineage leukemia (MLL) transcription factor derived peptide

Reference: patent US11788081 (STICHTING VU, dated 2023)
